What all share (details): 20 nM; 72 h
The test system of series [1] is MCF10A. Put plainly: percent viability (nuclei count relative to siNT); higher = more viable cells. Here is the method: (§1)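 After 72 h, cells were fixed and stained with Hoechst and anti-fibrillarin, and nucleoli per nucleus were counted with CellProfiler. Values are plate-adjusted percent effect for the one-nucleolus and 5+ nucleoli phenotypes, normalised to siNT (0%) and to the positive controls siNOL11 or siKIF11 (100%), as the mean of biological triplicates. Percent viability is the nuclei count relative to siNT.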

The test system of series [2] is MCF10A. Put plainly: 5+ nucleoli phenotype percent effect (relative to siNT 0% and siKIF11 100%); higher = more cells with five or more nucleoli. How it is done:
as §1

For series [3], the system named is MCF10A. As to the kind of experiment: one-nucleolus phenotype percent effect (relative to siNT 0% and siNOL11 100%); higher = more cells with one nucleolus (ribosome biogenesis inhibition). Here is the method: as §1

As to AGCCCCCUGGCCCCAAACCC [hsa-miR-4313], the percent viability in the series on MCF10A [1] was determined as 38.7%. For the same sequence, the “5+ nucleoli phenotype percent effect” value in the series with MCF10A [2] is 6.68%. Further, the “one-nucleolus phenotype percent effect” value in the series with MCF10A [3] was -4.86%.

As for GCAGGGACAGCAAAGGGGUGC [hsa-miR-211-3p], the percent viability in the series with MCF10A [1] came to 38.3%. For the same sequence, in the series with MCF10A [2], the “5+ nucleoli phenotype percent effect” value was -20.9%. Further, the “one-nucleolus phenotype percent effect” value in the series on MCF10A [3] stood at 9.24%.

As for “CGAGGGCAUUUCAUGAUGCAGGC [hsa-miR-3616-3p]”, the percent viability with MCF10A [1] was 24.6%. For the same sequence, in the series with MCF10A [2], the “5+ nucleoli phenotype percent effect” value is -22%. Further, the “one-nucleolus phenotype percent effect” value with MCF10A [3] came to 43.6%.

For the sequence “AGAUAUUUUGAGUGUUUGGAAUUG [hsa-miR-3145-3p]”, the percent viability in the series with MCF10A [1] stood at 48.7%. The “5+ nucleoli phenotype percent effect” value in the series with MCF10A [2] was -8.4%. The “one-nucleolus phenotype percent effect” value with MCF10A [3] was -11.7%.

With “UAAUACUGCCGGGUAAUGAUGGA [hsa-miR-200c-3p]”, in the series with MCF10A [1], the percent viability was found to be 104%. In the series on MCF10A [2], the “5+ nucleoli phenotype percent effect” value was determined as 62.3%. For the same sequence, the “one-nucleolus phenotype percent effect” value in the series on MCF10A [3] was -17%.

As for “UAGUGGUCCUAAACAUUUCACA [hsa-miR-203b-5p]”, in the series with MCF10A [1], the percent viability was 15.6%. Further, the “5+ nucleoli phenotype percent effect” value in the series with MCF10A [2] is -42.9%. In the series on MCF10A [3], the “one-nucleolus phenotype percent effect” value is 58.6%.

Consider UUAAUAUCGGACAACCAUUGU [hsa-miR-889], for which the percent viability in the series with MCF10A [1] was found to be 108%. In addition, the “5+ nucleoli phenotype percent effect” value in the series with MCF10A [2] worked out at 0.0778%. The “one-nucleolus phenotype percent effect” value in the series on MCF10A [3] is -0.642%.

In the case of “AAAAGUAAUUGCGAGUUUUACC [hsa-miR-548a-5p]”, in the series with MCF10A [1], the percent viability amounted to 172%. In addition, in the series on MCF10A [2], the “5+ nucleoli phenotype percent effect” value came out at 9.73%. Moreover, in the series on MCF10A [3], the “one-nucleolus phenotype percent effect” value was -20.8%.

For the sequence “ACUUGGGCAGGAGGGACCCUGUAUG [hsa-miR-6774-5p]”, the percent viability in the series with MCF10A [1] was found to be 22%. The “5+ nucleoli phenotype percent effect” value with MCF10A [2] is -35.9%. Moreover, in the series on MCF10A [3], the “one-nucleolus phenotype percent effect” value turned out to be 31.5%.

For UGCAAGACGGAUACUGUCAUCU [hsa-miR-4696], in the series with MCF10A [1], the percent viability was found to be 92.5%. Besides, in the series with MCF10A [2], the “5+ nucleoli phenotype percent effect” value is -15.7%. Moreover, the “one-nucleolus phenotype percent effect” value in the series on MCF10A [3] is -7.62%.

Turning to “AUCAUGUAUGAUACUGCAAACA [hsa-miR-6516-3p]”, the percent viability in the series on MCF10A [1] stood at 46.4%. Moreover, the “5+ nucleoli phenotype percent effect” value in the series with MCF10A [2] was -35%. In the series on MCF10A [3], the “one-nucleolus phenotype percent effect” value turned out to be 25.6%.

In the case of GAGGCUGAAGGAAGAUGG [hsa-miR-4419b], the percent viability in the series with MCF10A [1] is 58.3%. Also, the “5+ nucleoli phenotype percent effect” value in the series with MCF10A [2] is -30.7%. Also, the “one-nucleolus phenotype percent effect” value with MCF10A [3] turned out to be 21.1%.

Take CUGCGCAAGCUACUGCCUUGCU [hsa-let-7i-3p]: the percent viability in the series with MCF10A [1] is 110%. Further, the “5+ nucleoli phenotype percent effect” value in the series on MCF10A [2] worked out at 0.0505%. In the series on MCF10A [3], the “one-nucleolus phenotype percent effect” value was -4.21%.

With AGGAAAUGAGGCUGGCUAGGAGC [hsa-miR-5093], in the series on MCF10A [1], the percent viability amounted to 25.8%. Besides, the “5+ nucleoli phenotype percent effect” value in the series on MCF10A [2] turned out to be 0.0169%. In the series on MCF10A [3], the “one-nucleolus phenotype percent effect” value came out at 23.8%.

Consider AGGCUGCGGAAUUCAGGAC [hsa-miR-604], for which, in the series on MCF10A [1], the percent viability worked out at 25.6%. In the series with MCF10A [2], the “5+ nucleoli phenotype percent effect” value is -15.7%. For the same sequence, the “one-nucleolus phenotype percent effect” value in the series with MCF10A [3] was found to be 29.2%.

For “ACUGGACUUGGAGUCAGAAGGC [hsa-miR-378a-3p]”, in the series with MCF10A [1], the percent viability amounted to 66.7%. The “5+ nucleoli phenotype percent effect” value in the series with MCF10A [2] worked out at 13.6%. Moreover, the “one-nucleolus phenotype percent effect” value with MCF10A [3] was -2.19%.

“CGGCAACAAGAAACUGCCUGAG [hsa-miR-196a-3p]”: in the series with MCF10A [1], the percent viability stood at 25.1%. The “5+ nucleoli phenotype percent effect” value in the series with MCF10A [2] was -32.7%. Moreover, the “one-nucleolus phenotype percent effect” value in the series on MCF10A [3] turned out to be 37.8%.

For “AAAACUGUAAUUACUUUUGUAC [hsa-miR-548g-3p]”, the percent viability in the series with MCF10A [1] came to 165%. The “5+ nucleoli phenotype percent effect” value with MCF10A [2] stood at 49.3%. The “one-nucleolus phenotype percent effect” value with MCF10A [3] is -25.2%.

As to UUGUGUCAAUAUGCGAUGAUGU [hsa-miR-592], the percent viability in the series with MCF10A [1] turned out to be 69.9%. Also, in the series with MCF10A [2], the “5+ nucleoli phenotype percent effect” value is -26.9%. Moreover, the “one-nucleolus phenotype percent effect” value with MCF10A [3] turned out to be 31.3%.

ACUCAUUCUCCUCUGUCCAG [hsa-miR-6758-3p]: in the series with MCF10A [1], the percent viability was 147%. Besides, in the series on MCF10A [2], the “5+ nucleoli phenotype percent effect” value came to 81.4%. In addition, in the series with MCF10A [3], the “one-nucleolus phenotype percent effect” value was -26.2%.

Turning to UGUAAACAUCCUACACUCAGCU [hsa-miR-30b-5p], the percent viability in the series with MCF10A [1] amounted to 93%. Also, the “5+ nucleoli phenotype percent effect” value with MCF10A [2] was determined as 34.3%. In addition, the “one-nucleolus phenotype percent effect” value with MCF10A [3] is -9.57%.

With “AAAGGAUUCUGCUGUCGGUCCCACU [hsa-miR-541-5p]”, in the series on MCF10A [1], the percent viability was determined as 51.1%. The “5+ nucleoli phenotype percent effect” value in the series with MCF10A [2] is -28.2%. The “one-nucleolus phenotype percent effect” value in the series with MCF10A [3] was determined as 12.6%.

On to “CUCCCCUCUCUUUCCUGUUCAG [hsa-miR-6826-3p]”, for which the percent viability in the series on MCF10A [1] amounted to 52.3%. Moreover, the “5+ nucleoli phenotype percent effect” value in the series on MCF10A [2] is -9.68%. The “one-nucleolus phenotype percent effect” value in the series with MCF10A [3] is 0.6%.

Regarding CAUUACAGCACAGCCAUUCU [hsa-miR-6504-3p], in the series on MCF10A [1], the percent viability is 47.5%. In the series with MCF10A [2], the “5+ nucleoli phenotype percent effect” value was -25.6%. For the same sequence, in the series with MCF10A [3], the “one-nucleolus phenotype percent effect” value is 2.85%.
